Laboratory results from article PMC10853800.

T1: EYA4 1-365 (UniProt O95677 1-365)
T1 sequence: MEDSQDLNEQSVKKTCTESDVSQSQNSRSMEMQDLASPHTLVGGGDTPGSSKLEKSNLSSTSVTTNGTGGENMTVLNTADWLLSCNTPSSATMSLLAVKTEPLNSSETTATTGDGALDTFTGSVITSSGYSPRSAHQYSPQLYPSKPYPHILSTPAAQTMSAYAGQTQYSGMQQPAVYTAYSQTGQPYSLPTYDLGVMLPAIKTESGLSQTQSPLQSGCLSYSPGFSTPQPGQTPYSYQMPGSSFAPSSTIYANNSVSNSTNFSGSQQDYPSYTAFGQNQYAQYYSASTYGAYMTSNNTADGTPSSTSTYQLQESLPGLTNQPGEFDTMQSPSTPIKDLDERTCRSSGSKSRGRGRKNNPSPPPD

T2: EYA4 358-639 (UniProt O95677 358-639)
T2 sequence: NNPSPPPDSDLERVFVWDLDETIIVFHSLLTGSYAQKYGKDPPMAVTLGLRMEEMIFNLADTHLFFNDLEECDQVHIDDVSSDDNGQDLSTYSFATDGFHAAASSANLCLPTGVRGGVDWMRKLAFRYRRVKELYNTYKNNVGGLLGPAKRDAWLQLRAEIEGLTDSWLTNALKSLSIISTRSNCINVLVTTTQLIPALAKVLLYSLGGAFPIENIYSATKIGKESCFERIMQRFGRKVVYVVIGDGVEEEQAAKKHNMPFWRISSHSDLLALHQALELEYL

B1: Cy5-P1 ssDNA (ssDNA)
DNA: TTATATCCTTTACTTTGAATTCTATGTTTAACCTTTTACTTATTTTGTATTAGCCGGATCCTTATTTCAATTATGTTCAT
B2: Cy5-P1/P2 dsDNA (dsDNA)
DNA 1: B1 DNA
DNA 2: ATGAACATAATTGAAATAAGGATCCGGCTAATACAAAATAAGTAAAAGGTTAAACATAGAATTCAAAGTAAAGGATATAA
B3: 83(dT) (ssDNA)
DNA: TTTTTTTTTTTTTTTTTTTTTTTTTTTTTTTTTTTTTTTTTTTTTTTTTTTTTTTTTTTTTTTTTTTTTTTTTTTTTTTTTTT

Legend:
[1] = target: T1, EYA4 1-365; assay: MST
[2] = target: T2, EYA4 358-639; assay: EMSA
[3] = target: T3, RAD51 Y54F/Y315F (UniProt Q06609 1-339, Y54F;Y315F); assay: MST
[4] = target: T3, RAD51 Y54F/Y315F; assay: MST; remark: listed apart in the source
[5] = target: RAD51 WT (UniProt Q06609 1-339); assay: negative-stain EM
[6] = target: RAD51 T309A (UniProt Q06609 1-339, T309A); assay: negative-stain EM
[7] = target: T3, RAD51 Y54F/Y315F; assay: negative-stain EM

T3 sequence (Q06609 whole entry Y54F/Y315F): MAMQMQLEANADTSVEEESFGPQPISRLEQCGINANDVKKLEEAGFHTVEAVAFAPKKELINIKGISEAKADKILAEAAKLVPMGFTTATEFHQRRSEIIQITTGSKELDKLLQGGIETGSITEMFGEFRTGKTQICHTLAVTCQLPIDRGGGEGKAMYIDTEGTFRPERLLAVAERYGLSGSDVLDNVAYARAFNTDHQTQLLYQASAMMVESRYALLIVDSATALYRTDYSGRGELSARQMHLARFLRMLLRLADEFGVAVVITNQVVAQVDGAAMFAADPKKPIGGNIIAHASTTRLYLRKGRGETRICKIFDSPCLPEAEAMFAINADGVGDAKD
RAD51 T309A, sequence (Q06609 whole entry T309A): as the sequence (Q06609 whole entry Y54F/Y315F) above, with F54Y, T309A, F315Y counted along it
RAD51 WT, sequence (Q06609 whole entry): as the sequence (Q06609 whole entry Y54F/Y315F) above, with F54Y, F315Y counted along it

Binder	Kd [1] [nM]	binding result [2]	binding result [3]	binding result [4]	binding result [5]	binding result [6]	binding result [7]
B1	303	no binding	binds	–	–	–	–
B2	732	no binding	–	binds	–	–	–
B3	–	–	–	–	binds	binds	binds
